Laboratory results taken from article PMC9482650, “Quantitative fragmentomics allow affinity mapping of interactomes” (Nature Communications, 2022).

T1: PTPN13_4, Q12923
T1 sequence (Q12923 1783-1878, limits assumed, looked up): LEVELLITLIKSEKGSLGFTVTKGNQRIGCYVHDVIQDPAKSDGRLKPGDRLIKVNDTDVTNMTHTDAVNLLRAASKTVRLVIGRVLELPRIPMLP

T2: TJP3_1, O95049
T2 sequence (O95049 6-103, limits assumed, looked up): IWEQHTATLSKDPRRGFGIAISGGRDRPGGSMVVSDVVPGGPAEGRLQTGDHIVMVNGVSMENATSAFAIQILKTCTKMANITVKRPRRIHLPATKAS

T3: SHROOM4, Q9ULL8
T3 sequence (Q9ULL8 5-102, limits assumed, looked up): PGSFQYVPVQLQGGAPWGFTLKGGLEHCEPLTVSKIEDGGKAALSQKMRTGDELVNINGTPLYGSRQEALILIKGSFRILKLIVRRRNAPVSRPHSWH

T4: DVL1, O14640
T4 sequence (O14640 246-333, limits assumed, looked up): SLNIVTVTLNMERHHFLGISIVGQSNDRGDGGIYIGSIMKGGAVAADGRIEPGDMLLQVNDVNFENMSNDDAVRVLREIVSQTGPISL

T5: PREX2_2, Q70Z35
T5 sequence (Q70Z35 672-764, limits assumed, looked up): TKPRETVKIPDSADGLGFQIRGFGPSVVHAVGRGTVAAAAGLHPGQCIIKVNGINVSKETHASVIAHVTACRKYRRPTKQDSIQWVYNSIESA

T6: PDLIM3, Q53GG5
T6 sequence (Q53GG5 1-94, limits assumed, looked up): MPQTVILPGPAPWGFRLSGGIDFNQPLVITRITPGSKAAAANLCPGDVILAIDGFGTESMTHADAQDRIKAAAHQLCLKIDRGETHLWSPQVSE

T7: GIPC1, O14908
T7 sequence (O14908 128-223, limits assumed, looked up): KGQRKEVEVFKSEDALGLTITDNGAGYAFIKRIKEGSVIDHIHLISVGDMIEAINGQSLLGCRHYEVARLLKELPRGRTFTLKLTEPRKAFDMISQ

T8: PDZD2_4, O15018
T8 sequence (O15018 723-823, limits assumed, looked up): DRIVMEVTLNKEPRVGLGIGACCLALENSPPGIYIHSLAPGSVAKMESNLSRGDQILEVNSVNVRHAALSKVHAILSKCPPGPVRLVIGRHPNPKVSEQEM

T9: NHERF1_1, O14745
T9 sequence (O14745 9-104, limits assumed, looked up): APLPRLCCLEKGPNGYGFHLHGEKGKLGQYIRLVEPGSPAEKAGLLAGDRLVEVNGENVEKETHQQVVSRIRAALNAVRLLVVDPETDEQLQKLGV

T10: PTPN4, P29074
T10 sequence (P29074 512-599, limits assumed, looked up): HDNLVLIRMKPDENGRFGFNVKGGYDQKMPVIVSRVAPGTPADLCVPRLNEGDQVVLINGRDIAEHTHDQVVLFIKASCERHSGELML

T11: MPDZ_7, O75970
T11 sequence (O75970 1146-1253, limits assumed, looked up): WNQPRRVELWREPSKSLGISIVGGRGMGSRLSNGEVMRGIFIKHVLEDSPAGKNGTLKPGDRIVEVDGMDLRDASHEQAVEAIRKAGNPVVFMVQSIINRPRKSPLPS

T12: NHERF3_2, Q5T2W1
T12 sequence (Q5T2W1 129-225, limits assumed, looked up): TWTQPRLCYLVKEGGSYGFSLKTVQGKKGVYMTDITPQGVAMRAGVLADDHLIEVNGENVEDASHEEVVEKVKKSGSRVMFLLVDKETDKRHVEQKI

T13: LNX2_4, Q8N448
T13 sequence (Q8N448 595-690, limits assumed, looked up): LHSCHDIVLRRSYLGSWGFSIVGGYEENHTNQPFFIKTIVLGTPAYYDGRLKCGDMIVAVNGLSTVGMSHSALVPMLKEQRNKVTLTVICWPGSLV


Tests used:
Assay in all cases: holdup assay
Design in all cases: key: below the threshold = too weak to quantify, mostly under pKd 3.1 to 4
[1] = biological target: MAGI1_6, Q96QZ7
[2] = biological target: T1, PTPN13_4, Q12923
[3] = biological target: PREX1_1, Q8TCU6
[4] = biological target: MAGI3_5, Q5TCQ9
[5] = biological target: T2, TJP3_1, O95049
[6] = biological target: T3, SHROOM4, Q9ULL8
[7] = biological target: PDZD9, Q8IXQ8; settings: plain residues with an end cap or a label only (N-terminal biotin on a linker: (peg)3)
[8] = biological target: LNX1_4, Q8TBB1; settings: plain residues with an end cap or a label only (N-terminal biotin on a linker: (peg)3)
[9] = biological target: Inadl_7, Q8NI35
[10] = biological target: T4, DVL1, O14640; settings: plain residues with an end cap or a label only (N-terminal biotin on a linker: (peg)3)
[11] = biological target: T5, PREX2_2, Q70Z35
[12] = biological target: RIMS1, Q86UR5
[13] = biological target: T6, PDLIM3, Q53GG5
[14] = biological target: PTPN13_2, Q12923
[15] = biological target: MAGI3_4, Q5TCQ9
[16] = biological target: DVL2, O14641; settings: plain residues with an end cap or a label only (N-terminal biotin on a linker: (peg)3)
[17] = biological target: T7, GIPC1, O14908; settings: plain residues with an end cap or a label only (N-terminal biotin on a linker: (peg)3)
[18] = biological target: MAGI1_5, Q96QZ7
[19] = biological target: T8, PDZD2_4, O15018
[20] = biological target: T9, NHERF1_1, O14745
[21] = biological target: T10, PTPN4, P29074
[22] = biological target: T11, MPDZ_7, O75970
[23] = biological target: T12, NHERF3_2, Q5T2W1
[24] = biological target: AHNAK2, Q8IVF2
[25] = biological target: T13, LNX2_4, Q8N448
[26] = plain residues with an end cap or a label only (N-terminal biotin on a linker: (peg)3)
[27] = modified: phospho on T at position -2 from the C-terminal residue

Chain of MAGI3_4, Q5TCQ9 (Q5TCQ9 716-815): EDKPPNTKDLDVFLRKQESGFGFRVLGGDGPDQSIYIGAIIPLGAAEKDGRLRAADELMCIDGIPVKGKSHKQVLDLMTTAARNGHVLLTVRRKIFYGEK
Chain of PREX1_1, Q8TCU6 (Q8TCU6 608-718): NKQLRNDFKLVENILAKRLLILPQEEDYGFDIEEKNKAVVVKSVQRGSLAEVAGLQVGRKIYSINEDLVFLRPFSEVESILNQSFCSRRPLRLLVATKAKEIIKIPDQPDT
Chain of LNX1_4, Q8TBB1 (Q8TBB1 631-726): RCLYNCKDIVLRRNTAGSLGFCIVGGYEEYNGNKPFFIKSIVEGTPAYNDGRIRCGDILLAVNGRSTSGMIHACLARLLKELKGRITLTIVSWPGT
Chain of DVL2, O14641 (O14641 260-359): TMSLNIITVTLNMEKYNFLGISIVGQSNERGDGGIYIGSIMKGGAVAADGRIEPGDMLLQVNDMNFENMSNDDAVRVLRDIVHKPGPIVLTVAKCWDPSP
Chain of MAGI3_5, Q5TCQ9 (Q5TCQ9 847-941): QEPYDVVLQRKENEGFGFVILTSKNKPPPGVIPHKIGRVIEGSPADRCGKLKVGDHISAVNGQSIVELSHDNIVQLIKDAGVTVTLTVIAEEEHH
Chain of PDZD9, Q8IXQ8 (Q8IXQ8 23-120): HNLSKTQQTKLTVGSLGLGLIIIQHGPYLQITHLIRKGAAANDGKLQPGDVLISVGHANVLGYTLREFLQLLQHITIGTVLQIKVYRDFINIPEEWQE
Chain of MAGI1_5, Q96QZ7 (Q96QZ7 986-1098): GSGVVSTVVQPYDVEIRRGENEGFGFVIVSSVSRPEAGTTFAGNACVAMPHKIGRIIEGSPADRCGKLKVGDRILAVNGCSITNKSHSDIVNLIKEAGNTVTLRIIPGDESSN
Chain of RIMS1, Q86UR5 (Q86UR5 584-692): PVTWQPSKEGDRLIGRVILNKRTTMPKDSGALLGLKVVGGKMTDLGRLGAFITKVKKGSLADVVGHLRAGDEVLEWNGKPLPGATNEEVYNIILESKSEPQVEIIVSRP
Chain of Inadl_7, Q8NI35 (Q8NI35 1219-1332): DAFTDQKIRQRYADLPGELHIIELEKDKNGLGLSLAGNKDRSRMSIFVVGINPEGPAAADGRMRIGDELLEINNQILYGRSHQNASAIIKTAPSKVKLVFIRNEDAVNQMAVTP
Chain of MAGI1_6, Q96QZ7 (Q96QZ7 1146-1238): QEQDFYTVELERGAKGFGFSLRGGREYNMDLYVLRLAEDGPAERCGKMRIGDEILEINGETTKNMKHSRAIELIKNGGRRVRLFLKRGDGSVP
Chain of AHNAK2, Q8IVF2 (Q8IVF2 108-193): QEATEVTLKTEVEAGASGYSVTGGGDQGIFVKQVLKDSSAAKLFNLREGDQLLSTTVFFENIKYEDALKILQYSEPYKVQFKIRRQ
Chain of PTPN13_2, Q12923 (Q12923 1363-1462): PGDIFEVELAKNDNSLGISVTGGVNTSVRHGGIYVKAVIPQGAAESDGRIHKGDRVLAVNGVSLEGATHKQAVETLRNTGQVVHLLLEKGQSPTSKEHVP

| Binder | pKd [1, 26] | pKd [2, 26] | pKd [3, 26] | pKd [4, 26] | pKd [5, 26] | pKd [6, 26] | pKd [7] | pKd [8] | pKd [9, 26] | pKd [10] | pKd [11, 26] | pKd [12, 26] | pKd [13, 26] | pKd [14, 26] | pKd [15, 26] | pKd [16] | pKd [17] | pKd [18, 26] | pKd [19, 26] | pKd [20, 26] | further results |
| --- | --- | --- | --- | --- | --- | --- | --- | --- | --- | --- | --- | --- | --- | --- | --- | --- | --- | --- | --- | --- | --- |
| RYEDTTLVEDTVL [WNV-NS5, Q9Q6P4] | below the threshold | below the threshold | below the threshold | below the threshold | below the threshold | below the threshold | below the threshold | below the threshold | below the threshold | below the threshold | below the threshold | below the threshold | below the threshold | below the threshold | below the threshold | below the threshold | below the threshold | 3.84 | below the threshold | 5.14 | pKd [21, 26]: below the threshold; pKd [22, 26]: below the threshold; pKd [23, 26]: below the threshold; pKd [24, 26]: below the threshold; pKd [25, 26]: below the threshold |
| SSRTRRETQL [HPV16-E6_-2P, P03126] |  |  |  |  |  |  |  |  |  |  |  |  |  |  |  |  |  |  |  |  | pKd [1, 27]: below the threshold; pKd [2, 27]: below the threshold; pKd [3, 27]: below the threshold; pKd [4, 27]: below the threshold; pKd [5, 27]: below the threshold; pKd [6, 27]: below the threshold; pKd [9, 27]: below the threshold; pKd [11, 27]: below the threshold; pKd [12, 27]: below the threshold; pKd [13, 27]: below the threshold; pKd [14, 27]: below the threshold; pKd [15, 27]: below the threshold; pKd [18, 27]: below the threshold; pKd [19, 27]: below the threshold; pKd [20, 27]: below the threshold; pKd [21, 27]: below the threshold; pKd [22, 27]: below the threshold; pKd [23, 27]: below the threshold; pKd [24, 27]: below the threshold; pKd [25, 27]: below the threshold |
| RRRRSQSRESQC [HBV-HBc, P03193] | below the threshold | below the threshold | below the threshold | below the threshold | below the threshold | below the threshold | below the threshold | below the threshold | below the threshold | below the threshold | below the threshold | below the threshold | 4.1 | 3.99 | below the threshold | below the threshold | 5.58 | below the threshold | below the threshold | below the threshold | pKd [21, 26]: 4.94; pKd [22, 26]: below the threshold; pKd [23, 26]: below the threshold; pKd [24, 26]: below the threshold; pKd [25, 26]: 3.9 |
| QQSMSSADSTQA [SARS-Cov2-N, P0DTC9] | below the threshold | below the threshold | below the threshold | below the threshold | below the threshold | below the threshold | below the threshold | below the threshold | below the threshold | below the threshold | below the threshold | below the threshold | below the threshold | below the threshold | below the threshold | below the threshold | 4.46 | below the threshold | below the threshold | below the threshold | pKd [21, 26]: below the threshold; pKd [22, 26]: below the threshold; pKd [23, 26]: below the threshold; pKd [24, 26]: below the threshold; pKd [25, 26]: below the threshold |
